In general, Kd refers to the free concentration of one partner at which half of the binding sites on the other are occupied at equilibrium, for simple one-to-one binding.

Consider 2 substances from publication PMC10214761.

This assay concerns the target IgG1k from human myeloma plasma (IgG1 MC) (human). In words: SPR. In general terms: In SPR one partner is held on a chip, and binding of the other changes the refractive index at the surface.

“human Fcγ receptor IIb/c (hFcγRIIb/c) (from UniProt P31994 43-217)” gave a Kd of 3.36 µM. “human Fcγ receptor IIa (hFcγRIIa) (from UniProt P12318 34-217)” came in with a Kd of 0.309 µM.
